Laboratory results reported in patent US8455427B2, “Methods of modifying insulin signaling using biliverdin reductase” (University of Rochester, priority 2005, dated 2013).

Assays:
Format in all cases: biochemical
[1] = target: T1, insulin receptor tyrosine kinase (IRK) (Homo sapiens, UniProt P06213); experiment: BVR phosphorylation by the insulin receptor tyrosine kinase (IRK), in vitro [32P]-ATP assay; details: for decrease of BVR phosphorylation by IRK caused by point mutation / BVR phosphorylation by IRK (tyrosine mutants, in words): mutant vs wtBVR, IRK 2 h at 30° C.
T1 construct: the 48 kDa cytoplasmic domain of the β-subunit of IRK; purchased Biomol International (Plymouth, Pa.)
T1 sequence (P06213 980-1382 limits assumed): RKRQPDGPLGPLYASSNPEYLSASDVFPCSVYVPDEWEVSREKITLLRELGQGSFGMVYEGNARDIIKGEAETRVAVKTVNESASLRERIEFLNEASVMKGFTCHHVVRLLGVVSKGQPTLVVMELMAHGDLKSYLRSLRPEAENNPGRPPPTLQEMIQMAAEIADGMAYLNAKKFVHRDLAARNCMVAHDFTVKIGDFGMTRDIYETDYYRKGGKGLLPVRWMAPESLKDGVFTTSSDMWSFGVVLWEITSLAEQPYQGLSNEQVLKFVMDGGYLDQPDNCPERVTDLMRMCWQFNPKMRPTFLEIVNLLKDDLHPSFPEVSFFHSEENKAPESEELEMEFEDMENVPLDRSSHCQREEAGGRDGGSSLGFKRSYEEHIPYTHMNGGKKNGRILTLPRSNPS
Method: BVR phosphoiylation by the insulin receptor tyrosine kinase (IRK): Phosphorylation of BVR by IRK was examined using GST-HBVR fusion protein and the 48 kDa cytoplasmic domain of the β-subunit of IRK. BVR (5 μg) was incubated in 50 μl of IRK kinase buffer containing 50 mM HEPES (pH 8.0), 20 mM MgCl2, 1 mM DTT in the presence of 0.05 μg IRK and 10 μM ATP labeled with 10 μCi [γ-^32P]-ATP. The reaction was started with the addition of labeled ATP and incubated for 2-4 h. Reactions were terminated by addition of Laemmli sample buffer and boiled for 3 min. Samples were subjected to 8% SDS-PAGE and transferred to PVDF membranes for autoradiography.

human BVR [2] = target: T2, human BVR (Homo sapiens, UniProt P53004, A154S/E160D/G155D); experiment: BVR autophosphorylation; details: pH 8.4; 20 mM Zn acetate, also with Mn+2
T2 construct: made in house
T2 sequence (P53004 1-296 A154S/G155D/E160D): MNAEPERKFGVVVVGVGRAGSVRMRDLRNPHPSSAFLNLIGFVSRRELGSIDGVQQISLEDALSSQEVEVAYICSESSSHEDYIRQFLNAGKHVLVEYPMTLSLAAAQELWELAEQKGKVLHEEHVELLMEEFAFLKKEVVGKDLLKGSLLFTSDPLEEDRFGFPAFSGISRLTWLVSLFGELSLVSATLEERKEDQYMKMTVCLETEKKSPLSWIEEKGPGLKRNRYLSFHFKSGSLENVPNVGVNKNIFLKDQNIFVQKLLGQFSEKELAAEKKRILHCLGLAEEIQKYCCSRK
Method: (§1) BVR autophosphorylation and kinase activity: To detect autophosphorylation of BVR, GST-hBVR of wild type (wt) and mutant variants were incubated in 50 mM HEPES buffer (pH 8.4) in the presence of 30 mM MnCl2 and 1 mM DTT for 2 h at 30° C. The reaction was started with the addition of 10 μM ATP labeled with 10 μCi [γ-^32P]-ATP and was stopped with the addition of Laemmli sample buffer. Samples were boiled for 3 min and applied to a 8% SDS-PAGE gels, transferred to a PVDF membrane, and then visualized by autoradiography. To measure kinase activity, GST-BVR (5 μg) was incubated in 50 μl kinase buffer containing 50 mM HEPES buffer (pH 8.4), 20 mM MgCl2, 30 mM MnCl2, 1 mM DTT and 10 μM ATP labeled with 10 μCi [γ-^32P]-ATP in the presence of 5 μg substrates: IRS-1 or Raytide or poly glu/tyr (4:1) for 2 h at 30° C. The reaction was started with the addition of ATP and terminated by adding 120 μl 10% H3PO4. 100 μl aliquots were directly transferred to P81 Whatman filters which were subsequently washed extensively in 0.75% phosphoric acid at room temperature. Finally, the filters were submerged in acetone for 5 min, dried, and retained counts were measured using a Beckman LS 6500 liquid scintillation counter (Beckman Coulter, Fullerton, Calif.).

human BVR [3] = target: T2, human BVR; experiment: BVR kinase activity on substrates (IRS-1, IRS-1 peptides, Raytide, poly glu/tyr); details: peptide as substrate of BVR, [γ-32P]-ATP
Method: as §1

human BVR [4] = experiment: as above; details: protein tested as kinase for IRS; Mn+2 and Mg+2 present
Method: as §1

human BVR [5] = experiment: BVR autophosphorylation; details: pH 8.4, 30 mM MnCl2, 2 h, 30° C.
Method: as §1

With O=C(O)CN(CCN(CC(=O)O)CC(=O)O)CC(=O)O [EDTA, reference compound] the “effect on phosphorylation of BVR by IRK” value ([1]; 50 mM EDTA (pH 8.0), 30° C., 2 h, anti-phosphotyrosine blot) was “abolished phosphorylation of BVR by IRK”.

For O=c1c(-c2ccc(O)cc2)coc2cc(O)cc(O)c12 [Genestein, reference compound], the “effect on BVR phosphorylation mediated by IRK” value ([1]; genestein 200 μM, HEPES pH 8.0, 20 mM MgCl2) was “significantly inhibited BVR phosphorylation mediated by IRK”.

For CC(=O)[O-].CC(=O)[O-].[Zn+2] [Zn^+2, Zn acetate, reference compound], the “effect of metal ion on BVR autophosphorylation” value (human BVR [2]) was “inhibitory to BVR autophosphorylation”.

For “Arg-Thr-Glu-Ser^307-Ile-Thr-Ala-Thr-Ser^312-Pro-Ala-Ser^315-Met-Val-Gly-Gly-Lys-Pro (RTESITATSPASMVGGKP; peptide fragment of Homo sapiens Insulin Receptor Substrate (Peptide 2)) [IRS-1 peptide (#2), reference compound]”, the “phosphorylation of IRS-1 peptide by BVR” value (human BVR [3]) was 1198±230 cpm.

For “Lys-Lys-His-Ala-Asp-Asp-Gly-Ala-Met-Pro-Met-Ser^312-Pro-Gly-Val-Ala (KKHADDGAMPMSPGVA; mutant peptide fragment of Homo sapiens Insulin Receptor Substrate (Peptide 1)) [mutant IRS-1 peptide (#1), reference compound]”, the “phosphorylation of IRS-1 peptide by BVR” value (human BVR [3]) was 1049±78 cpm.

B1: HO-1: heme oxygenase isozyme, used as a control for kinase activity (protein, UniProt P09601 1-288, looked up)
Heme oxygenase 1: MERPQPDSMPQDLSEALKEATKEVHTQAENAEFMRNFQKGQVTRDGFKLVMASLYHIYVALEEEIERNKESPVFAPVYFPEELHRKAALEQDLAFWYGPRWQEVIPYTPAMQRYVKRLHEVGRTEPELLVAHAYTRYLGDLSGGQVLKKIAQKALDLPSSGEGLAFFTFPNIASATKFKQLYRSRMNSLEMTPAVRQRVIEEAKTAFLLNIQLFEELQELLTHDTKDQSPSRAPGLRQRASNKVQDSAPVETPRGKPPLNTRSQAPLLRWVLTLSFLVATVAVGLYAM
For B1, the IRS phosphorylation (human BVR [4]) was “did not significantly effect IRS phosphorylation”.

B2: Y^228: human BVR point mutant, NRYLS to NRFLS (protein, UniProt P53004 3-296, looked up, variant Y228F)
Biliverdin reductase A: AEPERKFGVVVVGVGRAGSVRMRDLRNPHPSSAFLNLIGFVSRRELGSIDGVQQISLEDALSSQEVEVAYICSESSSHEDYIRQFLNAGKHVLVEYPMTLSLAAAQELWELAEQKGKVLHEEHVELLMEEFAFLKKEVVGKDLLKGSLLFTAGPLEEERFGFPAFSGISRLTWLVSLFGELSLVSATLEERKEDQYMKMTVCLETEKKSPLSWIEEKGPGLKRNRFLSFHFKSGSLENVPNVGVNKNIFLKDQNIFVQKLLGQFSEKELAAEKKRILHCLGLAEEIQKYCCSRK
B2 was tested, and the “decrease of BVR phosphorylation by IRK caused by point mutation” value [1] was 40% and the “autophosphorylation of BVR mutants” value (human BVR [5]) was “did not result in significant changes in autophosphorylation of BVR”.

B3: Y^198 plus Y^228: human BVR double mutant, DQFMK and NRFLS (protein, UniProt P53004 3-296, looked up, variant Y198F Y228F)
Biliverdin reductase A: AEPERKFGVVVVGVGRAGSVRMRDLRNPHPSSAFLNLIGFVSRRELGSIDGVQQISLEDALSSQEVEVAYICSESSSHEDYIRQFLNAGKHVLVEYPMTLSLAAAQELWELAEQKGKVLHEEHVELLMEEFAFLKKEVVGKDLLKGSLLFTAGPLEEERFGFPAFSGISRLTWLVSLFGELSLVSATLEERKEDQFMKMTVCLETEKKSPLSWIEEKGPGLKRNRFLSFHFKSGSLENVPNVGVNKNIFLKDQNIFVQKLLGQFSEKELAAEKKRILHCLGLAEEIQKYCCSRK
In the case of B3, the “BVR phosphorylation by IRK (tyrosine mutants, in words)” value [1] is reported as “little or no phosphorylation was detected”.

B4: Y^198 plus Y^291: human BVR double mutant, DQFMK and QKFCC (protein, UniProt P53004 3-296, looked up, variant Y198F Y291F)
Biliverdin reductase A: AEPERKFGVVVVGVGRAGSVRMRDLRNPHPSSAFLNLIGFVSRRELGSIDGVQQISLEDALSSQEVEVAYICSESSSHEDYIRQFLNAGKHVLVEYPMTLSLAAAQELWELAEQKGKVLHEEHVELLMEEFAFLKKEVVGKDLLKGSLLFTAGPLEEERFGFPAFSGISRLTWLVSLFGELSLVSATLEERKEDQFMKMTVCLETEKKSPLSWIEEKGPGLKRNRYLSFHFKSGSLENVPNVGVNKNIFLKDQNIFVQKLLGQFSEKELAAEKKRILHCLGLAEEIQKFCCSRK
With B4 the “BVR phosphorylation by IRK (tyrosine mutants, in words)” value [1] was “little or no phosphorylation was detected”.

B5: G^17: human BVR point mutant in ATP binding domain, GVGRA to GVARA (protein, UniProt P53004 3-296, looked up, variant G17A)
Biliverdin reductase A: AEPERKFGVVVVGVARAGSVRMRDLRNPHPSSAFLNLIGFVSRRELGSIDGVQQISLEDALSSQEVEVAYICSESSSHEDYIRQFLNAGKHVLVEYPMTLSLAAAQELWELAEQKGKVLHEEHVELLMEEFAFLKKEVVGKDLLKGSLLFTAGPLEEERFGFPAFSGISRLTWLVSLFGELSLVSATLEERKEDQYMKMTVCLETEKKSPLSWIEEKGPGLKRNRYLSFHFKSGSLENVPNVGVNKNIFLKDQNIFVQKLLGQFSEKELAAEKKRILHCLGLAEEIQKYCCSRK
B5 was tested, and the IRS phosphorylation (human BVR [4]) was “for the most part, prevented IRS phosphorylation by BVR”.

B6: T^202: human BVR point mutant, KMTVC to KMAVC (protein, UniProt P53004 3-296, looked up, variant T202A)
Biliverdin reductase A: AEPERKFGVVVVGVGRAGSVRMRDLRNPHPSSAFLNLIGFVSRRELGSIDGVQQISLEDALSSQEVEVAYICSESSSHEDYIRQFLNAGKHVLVEYPMTLSLAAAQELWELAEQKGKVLHEEHVELLMEEFAFLKKEVVGKDLLKGSLLFTAGPLEEERFGFPAFSGISRLTWLVSLFGELSLVSATLEERKEDQYMKMAVCLETEKKSPLSWIEEKGPGLKRNRYLSFHFKSGSLENVPNVGVNKNIFLKDQNIFVQKLLGQFSEKELAAEKKRILHCLGLAEEIQKYCCSRK
B6 was tested, and the “autophosphorylation of BVR mutants” value (human BVR [5]) was “found to be a target of autophosphorylation”.

B7: Y^291: human BVR point mutant, QKYCC to QKFCC (protein, UniProt P53004 3-296, looked up, variant Y291F)
Biliverdin reductase A: AEPERKFGVVVVGVGRAGSVRMRDLRNPHPSSAFLNLIGFVSRRELGSIDGVQQISLEDALSSQEVEVAYICSESSSHEDYIRQFLNAGKHVLVEYPMTLSLAAAQELWELAEQKGKVLHEEHVELLMEEFAFLKKEVVGKDLLKGSLLFTAGPLEEERFGFPAFSGISRLTWLVSLFGELSLVSATLEERKEDQYMKMTVCLETEKKSPLSWIEEKGPGLKRNRYLSFHFKSGSLENVPNVGVNKNIFLKDQNIFVQKLLGQFSEKELAAEKKRILHCLGLAEEIQKFCCSRK
In the case of B7, the “decrease of BVR phosphorylation by IRK caused by point mutation” value [1] is reported as 49% and the “autophosphorylation of BVR mutants” value (human BVR [5]) is reported as “did not result in significant changes in autophosphorylation of BVR”.

B8: HO-2: heme oxygenase isozyme, used as a control for kinase activity (protein, UniProt P30519 2-316, looked up)
Heme oxygenase 2: SAEVETSEGVDESEKKNSGALEKENQMRMADLSELLKEGTKEAHDRAENTQFVKDFLKGNIKKELFKLATTALYFTYSALEEEMERNKDHPAFAPLYFPMELHRKEALTKDMEYFFGENWEEQVQCPKAAQKYVERIHYIGQNEPELLVAHAYTRYMGDLSGGQVLKKVAQRALKLPSTGEGTQFYLFENVDNAQQFKQLYRARMNALDLNMKTKERIVEEANKAFEYNMQIFNELDQAGSTLARETLEDGFPVHDGKGDMRKCPFYAAEQDKGALEGSSCPFRTAMAVLRKPSLQFILAAGVALAAGLLAWYYM
B8 was tested, and the IRS phosphorylation (human BVR [4]) was “did not significantly effect IRS phosphorylation”.
